Laboratory results: article PMC1635730

Assays:
[1] = molecular target: recombinant mesothelin expressed on human epidermoid epithelial A431 cells (human) (UniProt Q13421)
[2] = molecular target: recombinant mesothelin expressed on human epidermoid epithelial A431 cells (human) (UniProt Q13421); remark: listed apart in the source
[3] = molecular target: recombinant mesothelin tagged with the Fc fragment of rabbit IgG (human) (UniProt Q13421); assay: flow cytometry on cells; inhibition: soluble MUC16 pre-incubated with meso-Fc (25 nM) for 1 h at 4°C; read out as meso-Fc left to bind OVCAR-3 cells
Sequence of recombinant mesothelin tagged with the Fc fragment of rabbit IgG (human) (Q13421 other isoform, or with tags, fused parts or gaps): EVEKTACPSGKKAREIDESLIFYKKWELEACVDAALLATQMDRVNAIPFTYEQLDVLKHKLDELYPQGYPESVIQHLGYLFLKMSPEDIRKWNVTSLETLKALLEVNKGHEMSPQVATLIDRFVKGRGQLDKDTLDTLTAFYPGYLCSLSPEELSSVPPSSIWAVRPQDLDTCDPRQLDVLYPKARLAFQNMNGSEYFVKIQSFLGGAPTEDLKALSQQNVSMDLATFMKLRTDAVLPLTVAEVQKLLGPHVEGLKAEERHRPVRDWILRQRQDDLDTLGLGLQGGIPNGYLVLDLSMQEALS

Sequence of recombinant mesothelin expressed on human epidermoid epithelial A431 cells (human) (Q13421 other isoform, or with tags, fused parts or gaps): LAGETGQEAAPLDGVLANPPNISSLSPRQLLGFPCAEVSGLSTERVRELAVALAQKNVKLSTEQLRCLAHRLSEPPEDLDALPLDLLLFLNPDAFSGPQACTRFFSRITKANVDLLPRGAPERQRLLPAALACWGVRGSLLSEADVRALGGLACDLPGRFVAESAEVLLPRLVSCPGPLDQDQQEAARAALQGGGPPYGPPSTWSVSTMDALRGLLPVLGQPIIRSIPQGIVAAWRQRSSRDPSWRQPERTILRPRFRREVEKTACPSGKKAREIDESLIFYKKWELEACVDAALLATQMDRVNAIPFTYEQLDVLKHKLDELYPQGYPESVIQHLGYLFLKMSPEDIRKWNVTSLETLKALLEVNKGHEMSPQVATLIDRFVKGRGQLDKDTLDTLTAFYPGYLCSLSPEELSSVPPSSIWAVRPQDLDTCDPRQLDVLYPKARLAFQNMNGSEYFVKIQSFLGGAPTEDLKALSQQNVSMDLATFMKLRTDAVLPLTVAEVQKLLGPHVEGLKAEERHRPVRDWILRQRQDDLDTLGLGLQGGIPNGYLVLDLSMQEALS

Substance | reduction of heterotypic cell adhesion between #12 and A431-Meso+ cells by ascites of EOC patients (#15 and #24), flow cytometry [1] [%] | heterotypic doublets between MUC16 positive #12 cells and A431-Meso+ cells in PBS with 1% BSA, percent of total live cells, flow cytometry [2] [%] | percent inhibition of meso-Fc binding to OVCAR-3 cells (MUC16 at half the molar amount of meso-Fc) [3] [%]
MUC16 expressed on the surface of the ovarian tumor cell line OVCAR-3, Q8WXI7 1-14507 | 33 | 25 | 
native MUC16 partially purified from OVCAR-3 cell culture media, Q8WXI7 1-14451 |  |  | 80
